Experimental data taken from PMC11068555.

Key:
[1] = molecular target: SHC014 S Foldon his (prefusion stabilized spike ectodomain) (sarbecovirus SHC014 (clade 1a) | bacteriophage T4); assay: native gel or EMSA
[2] = molecular target: WIV1 S Foldon his (prefusion stabilized spike ectodomain) (sarbecovirus WIV1 (clade 1a) | bacteriophage T4); assay: native gel or EMSA

Substance	stoichiometry N [1]	stoichiometry N [2]
SHC014 S Foldon his (prefusion stabilized spike ectodomain) (domain or fragment)	3	
WIV1 S Foldon his (prefusion stabilized spike ectodomain) (domain or fragment)		3
